Article PMC10787763, “Two-substrate enzyme engineering using small libraries that combine the substrate preferences from two different variant lineages” (Scientific Reports, 2024)

Substrate: O=Cc1cccc(C(=O)O)c1
Test: initial-rate kinetics by RP-HPLC, Michaelis-Menten fit
Format: biochemical, Escherichia coli
Settings: TK-3, acceptor substrate varied, 50 mM pyruvate as donor, 2.4 mM ThDP, 9 mM MgCl2, 50 mM Tris-HCl pH 7.0, 21 °C, error is SEM
Text: initial-rate kinetics by RP-HPLC, Michaelis-Menten fit on E. coli transketolase (TK), 6M variant scaffold

B1: E. coli transketolase (TK), 6M variant scaffold (Escherichia coli K-12; A282P/D469T/G506A/H100L/H192P/I365L/S385F) (protein)
chain: MSSRKELANAIRALSMDAVQKAKSGHPGAPMGMADIAEVLWRDFLKHNPQNPSWADRDRFVLSNGHGSMLIYSLLHLTGYDLPMEELKNFRQLHSKTPGLPEVGYTAGVETTTGPLGQGIANAVGMAIAEKTLAAQFNRPGHDIVDHYTYAFMGDGCMMEGISHEVCSLAGTLKLGKLIAFYDDNGISIDGPVEGWFTDDTAMRFEAYGWHVIRDIDGHDAASIKRAVEEARAVTDKPSLLMCKTIIGFGSPNKAGTHDSHGAPLGDAEIALTREQLGWKYPPFEIPSEIYAQWDAKEAGQAKESAWNEKFAAYAKAYPQEAAEFTRRMKGEMPSDFDAKAKEFIAKLQANPAKIASRKASQNALEAFGPLLPEFLGGSADLAPFNLTLWSGSKAINEDAAGNYIHYGVREFGMTAIANGISLHGGFLPYTSTFLMFVEYARNAVRMAALMKQRQVMVYTHDSIGLGETGPTHQPVEQVASLRVTPNMSTWRPCDQVESAVAWKYAVERQDGPTALILSRQNLAQQERTEEQLANIARGGYVLKDCAGQPELIFIATGSEVELAVAAYEKLTAEGVKARVVSMPSTDAFDKQDAAYRESVLPKAVTARVAVEAGIADYWYKYVGLNGAIVGMTTFGESAPAELLFEEFGFTVDNVVAKAKELL
notes: full-length, C-terminal His6 tag, expressed in E. coli from lab plasmid (pQR791 / pQR729), Ni-NTA purified; holo-TK with ThDP and Mg2+; non-natural residue by amber suppression in TK-5C
With B1 the Km was 82 (11) mM, the Vmax was 3500 µM/min and the kcat was 43 s⁻¹.
